“And” between values parts separate entries of the source, which are not always exact repeats. Equal entries are not always repeated. Square brackets hold non-standard residues; d marks the D form. Ends that are not written are not given here. pY = N[C@@H](Cc1ccc(OP(=O)(O)O)cc1)C(=O)O

One test addresses F3 peptide. In words: NMR titration.
Test [1] deals with T1, SOCS2-Elo B/C + F3 (human, UniProt O14508 32-198; Q15370 1-118; Q15369 17-112). In words: ITC. Background: Isothermal titration calorimetry measures the heat released or taken up as one component is titrated into another.
T1 sequence (Q15370 whole entry, chain 2 of 2): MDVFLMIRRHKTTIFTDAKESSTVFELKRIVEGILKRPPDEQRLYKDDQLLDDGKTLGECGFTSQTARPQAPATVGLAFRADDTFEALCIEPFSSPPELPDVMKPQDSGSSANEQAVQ
T1 sequence (Q15369 17-112, chain 3 of 2): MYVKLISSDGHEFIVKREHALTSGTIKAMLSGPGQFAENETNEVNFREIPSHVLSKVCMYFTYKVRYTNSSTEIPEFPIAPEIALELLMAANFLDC
In test [2] the target is T1, SOCS2-Elo B/C + F3. The experiment in a line: ITC. The source holds these as a separate data set.

B1: SOCS2-SH2^32–159 (domain or fragment, human, UniProt O14508 32-159, looked up)
chain: QAARLAKALRELGQTGWYWGSMTVNEAKEKLKEAPEGTFLIRDSSHSDYLLTISVKTSAGPTNLRIEYQDGKFRLDSIICVKSKLKQFDSVVHLIDYYVQMCKDKRTGPEAPRNGTVHLYLTKPLYTS
As to B1, the binding result with F3 peptide is “binds”.

B2: Cullin5 N-terminal domain (Cul5^1-384) (domain or fragment)
chain: MATSNLLKNKGSLQFEDKWDFMRPIVLKLLRQESVTKQQWFDLFSDVHAVCLWDDKGPAKIHQALKEDILEFIKQAQARVLSHQDDTALLKAYIVEWRKFFTQCDILPKPFCQLEITLMGKQGSNKKSNVEDSIVRKLMLDTWNESIFSNIKNRLQDSAMKLVHAERLGEAFDSQLVIGVRESYVNLCSNPEDKLQIYRDNFEKAYLDSTERFYRTQAPSYLQQNGVQNYMKYADAKLKEEEKRALRYLETRRECNSVEALMECCVNALVTSFKETILAECQGMIKRNETEKLHLMFSLMDKVPNGIEPMLKDLEEHIISAGLADMVAAAETITTDSEKYVEQLLTLFNRFSKLVKEAFQDDPRFLTARDKAYKAVVNDATIFK
Usually stoichiometry N stands for a count of units in the complex or per binding partner. One may read the Kd as the equilibrium constant for the complex coming apart. Take B2: the “stoichiometry N” value with SOCS2-Elo B/C + F3 [1] stood at 0.81. The Kd in the test with SOCS2-Elo B/C + F3 [2] came to 41 nM.
As to STASTVQ[pY]STVVHSG [gp130 pY757 peptide], the “stoichiometry N” value in the test with SOCS2-Elo B/C + F3 [1] was 0.738 and 0.632.
